Measured values as given in the supplement of paper PMC9112550, “Optimization of the antimicrobial peptide Bac7 by deep mutational scanning” (BMC Biology, 2022).

System: Escherichia coli TOP10
Test: shrunken log2 fold change of peptide-encoding DNA abundance (4.5 h post-induction vs induction); higher = less antimicrobial activity (less host growth inhibition)
Conditions: time post-induction: 4.5 h; library: site-saturation at positions 5, 18, 19, 20
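Note: peptides expressed intracellularly from a pBAD plasmid library in pooled LB shake-flask culture, induced with 0.3% L-arabinose, DNA abundance read by NGS, three biological replicates, DESeq2 with apeglm shrinkage.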

## RRIRNRPPRLPRPRPRPTFGPRP
  shrunken log2 fold change: -0.084

## RRIRFRPPRLPRPRPRPSHSPRP
  shrunken log2 fold change: -0.171

## RRIRTRPPRLPRPRPRPTPWPRP
  shrunken log2 fold change: 0.411

## RRIRQRPPRLPRPRPRPWRLPRP
  shrunken log2 fold change: -0.0759

## RRIRARPPRLPRPRPRPFPAPRP
  shrunken log2 fold change: 0.439

## RRIRHRPPRLPRPRPRPKGRPRP
  shrunken log2 fold change: 0.0526

## RRIRGRPPRLPRPRPRPPPSPRP
  shrunken log2 fold change: 1.22

## RRIRIRPPRLPRPRPRPEMAPRP
  shrunken log2 fold change: -0.061

## RRIRYRPPRLPRPRPRPCIYPRP
  shrunken log2 fold change: -0.207

## RRIRNRPPRLPRPRPRPTNHPRP
  shrunken log2 fold change: -0.527

## RRIRPRPPRLPRPRPRPKAQPRP
  shrunken log2 fold change: -0.155

## RRIRERPPRLPRPRPRPKQQPRP
  shrunken log2 fold change: -0.0499

## RRIRSRPPRLPRPRPRPHWHPRP
  shrunken log2 fold change: -0.124

## RRIRMRPPRLPRPRPRPFLDPRP
  shrunken log2 fold change: -0.198

## RRIRNRPPRLPRPRPRPWEEPRP
  shrunken log2 fold change: -0.00133

## RRIRKRPPRLPRPRPRPYQKPRP
  shrunken log2 fold change: -0.00762

## RRIRWRPPRLPRPRPRPPKVPRP
  shrunken log2 fold change: 0.136

## RRIRCRPPRLPRPRPRPPAGPRP
  shrunken log2 fold change: 0.79

## RRIRVRPPRLPRPRPRPFHDPRP
  shrunken log2 fold change: -0.0143

## RRIRIRPPRLPRPRPRPEYAPRP
  shrunken log2 fold change: -0.0426

## RRIRCRPPRLPRPRPRPRHCPRP
  shrunken log2 fold change: 0.423

## RRIRCRPPRLPRPRPRPWDSPRP
  shrunken log2 fold change: -0.36

## RRIRVRPPRLPRPRPRPEPQPRP
  shrunken log2 fold change: 0.363

## RRIRIRPPRLPRPRPRPLFMPRP
  shrunken log2 fold change: -0.756

## RRIRMRPPRLPRPRPRPIFCPRP
  shrunken log2 fold change: -0.0454

## RRIRSRPPRLPRPRPRPNKRPRP
  shrunken log2 fold change: -0.174

## RRIRIRPPRLPRPRPRPKSEPRP
  shrunken log2 fold change: -0.329

## RRIRSRPPRLPRPRPRPHVYPRP
  shrunken log2 fold change: -0.355

## RRIRTRPPRLPRPRPRPTAQPRP
  shrunken log2 fold change: 0.247

## RRIRYRPPRLPRPRPRPIQCPRP
  shrunken log2 fold change: -0.0422

## RRIRTRPPRLPRPRPRPDMCPRP
  shrunken log2 fold change: -0.0287

## RRIRKRPPRLPRPRPRPQILPRP
  shrunken log2 fold change: -0.144

## RRIRQRPPRLPRPRPRPIVWPRP
  shrunken log2 fold change: -0.287

## RRIRDRPPRLPRPRPRPAVWPRP
  shrunken log2 fold change: 1.19

## RRIRTRPPRLPRPRPRPEIVPRP
  shrunken log2 fold change: 0.00632

## RRIRLRPPRLPRPRPRPNCVPRP
  shrunken log2 fold change: 0.138

## RRIRARPPRLPRPRPRPPLLPRP
  shrunken log2 fold change: 0.543

## RRIRIRPPRLPRPRPRPMHDPRP
  shrunken log2 fold change: -0.152

## RRIRQRPPRLPRPRPRPAGPPRP
  shrunken log2 fold change: -0.000608

## RRIRMRPPRLPRPRPRPGTSPRP
  shrunken log2 fold change: 0.24

## RRIRSRPPRLPRPRPRPYQVPRP
  shrunken log2 fold change: -0.0683

## RRIRDRPPRLPRPRPRPWDAPRP
  shrunken log2 fold change: 0.207

## RRIRYRPPRLPRPRPRPFAVPRP
  shrunken log2 fold change: -1.09

## RRIRNRPPRLPRPRPRPAAQPRP
  shrunken log2 fold change: 0.401

## RRIRRRPPRLPRPRPRPARCPRP
  shrunken log2 fold change: 0.42

## RRIRLRPPRLPRPRPRPVQQPRP
  shrunken log2 fold change: 0.053

## RRIRLRPPRLPRPRPRPPENPRP
  shrunken log2 fold change: 0.588

## RRIRIRPPRLPRPRPRPYTQPRP
  shrunken log2 fold change: -1.02

## RRIRIRPPRLPRPRPRPKSMPRP
  shrunken log2 fold change: -0.208

## RRIRPRPPRLPRPRPRPLHGPRP
  shrunken log2 fold change: 0.0827

## RRIRWRPPRLPRPRPRPMLMPRP
  shrunken log2 fold change: -0.0339

## RRIRRRPPRLPRPRPRPCPCPRP
  shrunken log2 fold change: -0.176

## RRIRTRPPRLPRPRPRPGWRPRP
  shrunken log2 fold change: 0.69

## RRIRERPPRLPRPRPRPEAVPRP
  shrunken log2 fold change: 0.292

## RRIRNRPPRLPRPRPRPPMWPRP
  shrunken log2 fold change: -0.115

## RRIRMRPPRLPRPRPRPMDSPRP
  shrunken log2 fold change: 0.0342

## RRIRARPPRLPRPRPRPWFMPRP
  shrunken log2 fold change: -0.108

## RRIRWRPPRLPRPRPRPWQDPRP
  shrunken log2 fold change: -0.00695

## RRIRFRPPRLPRPRPRPKQIPRP
  shrunken log2 fold change: -0.218

## RRIRSRPPRLPRPRPRPFAHPRP
  shrunken log2 fold change: 0.0573

## RRIRGRPPRLPRPRPRPLIYPRP
  shrunken log2 fold change: 0.105

## RRIRSRPPRLPRPRPRPCAIPRP
  shrunken log2 fold change: -0.475

## RRIRYRPPRLPRPRPRPAMLPRP
  shrunken log2 fold change: -0.372

## RRIRPRPPRLPRPRPRPNAYPRP
  shrunken log2 fold change: -0.0709

## RRIRCRPPRLPRPRPRPWGCPRP
  shrunken log2 fold change: -0.00936

## RRIRWRPPRLPRPRPRPDYCPRP
  shrunken log2 fold change: -0.0321

## RRIRFRPPRLPRPRPRPYVSPRP
  shrunken log2 fold change: -0.438

## RRIRYRPPRLPRPRPRPTTGPRP
  shrunken log2 fold change: -0.549

## RRIRDRPPRLPRPRPRPVVCPRP
  shrunken log2 fold change: 0.26

## RRIRMRPPRLPRPRPRPEVTPRP
  shrunken log2 fold change: 0.053

## RRIRPRPPRLPRPRPRPRGQPRP
  shrunken log2 fold change: 0.204

## RRIRYRPPRLPRPRPRPQTHPRP
  shrunken log2 fold change: -1.08

## RRIRERPPRLPRPRPRPNWKPRP
  shrunken log2 fold change: -0.0166

## RRIRSRPPRLPRPRPRPPENPRP
  shrunken log2 fold change: 0.679

## RRIRARPPRLPRPRPRPSRMPRP
  shrunken log2 fold change: 0.362

## RRIRSRPPRLPRPRPRPWVGPRP
  shrunken log2 fold change: -0.452

## RRIRRRPPRLPRPRPRPLNKPRP
  shrunken log2 fold change: 0.0514

## RRIRGRPPRLPRPRPRPNPAPRP
  shrunken log2 fold change: 0.231

## RRIRPRPPRLPRPRPRPNHSPRP
  shrunken log2 fold change: -0.553

## RRIRMRPPRLPRPRPRPVIGPRP
  shrunken log2 fold change: -0.0424

## RRIRWRPPRLPRPRPRPGCEPRP
  shrunken log2 fold change: 0.901

## RRIRDRPPRLPRPRPRPLTRPRP
  shrunken log2 fold change: -0.00589

## RRIRNRPPRLPRPRPRPHEPPRP
  shrunken log2 fold change: 0.247

## RRIRPRPPRLPRPRPRPQWRPRP
  shrunken log2 fold change: 0.308

## RRIRKRPPRLPRPRPRPSNLPRP
  shrunken log2 fold change: -0.0133

## RRIRIRPPRLPRPRPRPQYSPRP
  shrunken log2 fold change: -0.581

## RRIRNRPPRLPRPRPRPRPHPRP
  shrunken log2 fold change: 0.226

## RRIRPRPPRLPRPRPRPLRCPRP
  shrunken log2 fold change: 0.394

## RRIRNRPPRLPRPRPRPQPMPRP
  shrunken log2 fold change: -0.111

## RRIRHRPPRLPRPRPRPYYQPRP
  shrunken log2 fold change: -0.416

## RRIRMRPPRLPRPRPRPIGFPRP
  shrunken log2 fold change: -0.01

## RRIRCRPPRLPRPRPRPVARPRP
  shrunken log2 fold change: 0.255

## RRIRDRPPRLPRPRPRPFRTPRP
  shrunken log2 fold change: -0.0508

## RRIRHRPPRLPRPRPRPKGYPRP
  shrunken log2 fold change: -0.0529

## RRIRNRPPRLPRPRPRPTIWPRP
  shrunken log2 fold change: -0.23

## RRIRIRPPRLPRPRPRPAERPRP
  shrunken log2 fold change: 0.0773

## RRIRWRPPRLPRPRPRPPDPPRP
  shrunken log2 fold change: 0.296

## RRIRIRPPRLPRPRPRPNWRPRP
  shrunken log2 fold change: 0.0227

## RRIRFRPPRLPRPRPRPWITPRP
  shrunken log2 fold change: -0.192

## RRIRVRPPRLPRPRPRPQLFPRP
  shrunken log2 fold change: 0.229

## RRIRQRPPRLPRPRPRPHYVPRP
  shrunken log2 fold change: -0.123

## RRIRLRPPRLPRPRPRPQIEPRP
  shrunken log2 fold change: -0.155

## RRIRSRPPRLPRPRPRPFGIPRP
  shrunken log2 fold change: -0.172

## RRIRFRPPRLPRPRPRPNVRPRP
  shrunken log2 fold change: 0.0987

## RRIRKRPPRLPRPRPRPWGAPRP
  shrunken log2 fold change: 0.449

## RRIRNRPPRLPRPRPRPFSRPRP
  shrunken log2 fold change: -0.000753

## RRIRDRPPRLPRPRPRPYTDPRP
  shrunken log2 fold change: 0.0446

## RRIRFRPPRLPRPRPRPYGCPRP
  shrunken log2 fold change: -0.531

## RRIRERPPRLPRPRPRPPIGPRP
  shrunken log2 fold change: -0.144

## RRIRVRPPRLPRPRPRPKHKPRP
  shrunken log2 fold change: -0.114

## RRIRMRPPRLPRPRPRPCTPPRP
  shrunken log2 fold change: 0.154

## RRIRVRPPRLPRPRPRPSFYPRP
  shrunken log2 fold change: -0.872

## RRIRFRPPRLPRPRPRPVGHPRP
  shrunken log2 fold change: -0.0219

## RRIRDRPPRLPRPRPRPYSIPRP
  shrunken log2 fold change: 0.0125

## RRIRVRPPRLPRPRPRPYSTPRP
  shrunken log2 fold change: -0.00968

## RRIRARPPRLPRPRPRPLEMPRP
  shrunken log2 fold change: 0.75

## RRIRPRPPRLPRPRPRPIEKPRP
  shrunken log2 fold change: 0.0388

## RRIRDRPPRLPRPRPRPSACPRP
  shrunken log2 fold change: 0.294

## RRIRCRPPRLPRPRPRPAYIPRP
  shrunken log2 fold change: -0.628

## RRIRTRPPRLPRPRPRPIYVPRP
  shrunken log2 fold change: -0.34

## RRIRIRPPRLPRPRPRPDKQPRP
  shrunken log2 fold change: 0.0185

## RRIRERPPRLPRPRPRPCFEPRP
  shrunken log2 fold change: -0.258

## RRIRRRPPRLPRPRPRPWGEPRP
  shrunken log2 fold change: 2.96

## RRIRCRPPRLPRPRPRPTVNPRP
  shrunken log2 fold change: -0.184

## RRIRPRPPRLPRPRPRPADNPRP
  shrunken log2 fold change: -0.428

## RRIRCRPPRLPRPRPRPYCGPRP
  shrunken log2 fold change: -0.888

## RRIRPRPPRLPRPRPRPQWPPRP
  shrunken log2 fold change: -0.0484

## RRIRARPPRLPRPRPRPDYDPRP
  shrunken log2 fold change: 0.0454

## RRIRCRPPRLPRPRPRPRQFPRP
  shrunken log2 fold change: 0.0823

## RRIRTRPPRLPRPRPRPTEWPRP
  shrunken log2 fold change: 0.0143

## RRIRWRPPRLPRPRPRPYEDPRP
  shrunken log2 fold change: -0.231

## RRIRYRPPRLPRPRPRPMSGPRP
  shrunken log2 fold change: -0.748

## RRIRPRPPRLPRPRPRPYYEPRP
  shrunken log2 fold change: -0.321

## RRIRMRPPRLPRPRPRPDWWPRP
  shrunken log2 fold change: 0.218

## RRIRNRPPRLPRPRPRPQNDPRP
  shrunken log2 fold change: -0.966

## RRIRERPPRLPRPRPRPLGVPRP
  shrunken log2 fold change: -0.171

## RRIRRRPPRLPRPRPRPIINPRP
  shrunken log2 fold change: -0.207

## RRIRPRPPRLPRPRPRPAEVPRP
  shrunken log2 fold change: -0.0315

## RRIRLRPPRLPRPRPRPMNEPRP
  shrunken log2 fold change: -0.00493

## RRIRARPPRLPRPRPRPGNHPRP
  shrunken log2 fold change: -0.0331

## RRIRARPPRLPRPRPRPNVYPRP
  shrunken log2 fold change: -0.115

## RRIRLRPPRLPRPRPRPCHQPRP
  shrunken log2 fold change: -0.234

## RRIRSRPPRLPRPRPRPYKGPRP
  shrunken log2 fold change: -0.186

## RRIRYRPPRLPRPRPRPLFTPRP
  shrunken log2 fold change: -0.962

## RRIRIRPPRLPRPRPRPAQDPRP
  shrunken log2 fold change: -0.0552

## RRIRPRPPRLPRPRPRPNPCPRP
  shrunken log2 fold change: -0.165

## RRIRGRPPRLPRPRPRPNTRPRP
  shrunken log2 fold change: 0.528

## RRIRERPPRLPRPRPRPDFVPRP
  shrunken log2 fold change: 0.105

## RRIRQRPPRLPRPRPRPKHDPRP
  shrunken log2 fold change: -0.121

## RRIRPRPPRLPRPRPRPDDPPRP
  shrunken log2 fold change: -0.0693
